In patent US20220204610A1, “PROTEIN BINDERS FOR IRHOM2” (NEW YORK SOCIETY FOR THE RELIEF OF THE RUPTURED AND …, priority 2019, published 2022):

Tested on: LPS-induced release of endogenous TNFα from human THP-1 macrophage cells
Assay: ELISA-based TNFα release assay, IC50 determination (Example 12)
Format: cell-based
Settings: titration 80.00 to 0.08 μg/ml final; LPS 50 ng/ml, 3 hours
Method: Expanding the functional analyses, ELISA-based TNFα release assays were performed to determine the half maximal inhibitory concentration (IC50) for the purified antibody 4H8-E3 of the invention on LPS-induced release of endogenous TNFα from human THP-1 macrophage cells.
In brief, on day 1, Nunc black MaxiSorp® 96-well plates (Thermo Fisher Scientific, USA) were coated overnight with 100 μl per well of mouse anti-human TNFα capture antibody (provided as part of the DuoSet ELISA kit) at 4 μg/ml TBS at 4° C. On day 2, the capture antibody solution was removed and MaxiSorp® plates were blocked with 300 μl per well of TBS, 1% BSA at room temperature for 3 hours. […] Using an infinite M1000 PRO (Tecan Group, Switzerland) microplate reader, the fluorescence of each well was collected at an excitation wavelength of 435 nm and an emission wavelength of 555 nm.

B1: 4H8-E3: Mouse IgM monoclonal antibody against the human iRhom2 juxtamembrane domain adjacent to TMD1; HC VD SEQ ID NO 33, LC VD SEQ ID NO 40 (antibody, V domains shown)
VH: EVQLQQSGPELVKPGASVKISCKASGYTFTDYYMNWVKQSHGKSLEWIGDINPNNGGTSYNQKFKGKATLTVDKSSNTAYMEFRSLTSEDSAVYYCARRGYYGVDYWGQGTTLTVSS
VL: NIVMTQSPKSMSMSVGERVTLNCKASENVGTYVSWYQQKPEQSPKLLIFGASNRYTGVPDRFIGSGFATDFTLTISSVQAEDLADYHCGQSYSYPYTFGGGTKLEIK
modifications: IgM constant regions; antibody sequence
inhibition of TNFα release from THP-1 cells on titration: concentration-dependent inhibition
